Test results as given in publication PMC13544220, “Glycemic and bodyweight effects of GIPR coding variation reflect differences in surface expression and intrinsic functional impairment” (Science Advances, 2026).

Experiments:
Type in all cases: cell-based, human
[1] = tested on: wild-type and variant SNAP-GIPR; test: Surface SNAP-GIPR expression (SNAP-tag labelling) in AD293 cells; details: for AD293 Surface: Fig S3E, mean; for Surface SNAP-GIPR expression: sheet Fig 1C;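 for all read-outs here: scaled to the experimental average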
How it was run: (§1)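 Surface GIPR is quantified from wide-field images after labelling intact transfected cells with a membrane-impermeant SNAP probe at 500 nM for 10 min at room temperature. Specific signal, corrected for nontransfected cells, is normalized to the experiment-wide average or to wild-type.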

[2] = tested on: wild-type and variant SNAP-GIPR; test: Surface SNAP-GIPR expression (SNAP-tag labelling) in INS-1 cells; details: Fig 4G; Mean
How it was run: as §1

[3] = tested on: wild-type and variant SNAP-GIPR; test: Single-concentration GIP cAMP response by HTRF in AD293 cells; details: Fig S3F, HTRF, mean;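 note: ratio to experiment-wide average response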
Experimental: (§2) All variants were tested in parallel on each occasion to control for transfection efficiency differences between experiments.

[4] = tested on: wild-type and variant SNAP-GIPR; test: Single-concentration GIP cAMP response by HTRF in INS-1 cells; details: Fig S3E, mean
Experimental: as §2

[5] = tested on: wild-type and variant SNAP-GIPR; test: cADDis cAMP imaging in AD293 cells, ensemble, expression-matched and per decile; details: Fig S3F, cADDis, mean;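 note: Ensemble cells as % of IBMX/FSK response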
How it was run: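 Variants and wild type ran in parallel in transfected AD293 cells carrying cADDis. Single-cell sensor intensity, with nonresponders to IBMX/FSK removed, was paired with SNAP-Surface 647 labeling to allow expression-matched analysis.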

[6] = tested on: wild-type and variant SNAP-GIPR; test: Constitutive and agonist-mediated internalization, reversible SNAP-tag labelling, AD293 cells; set-up: key to Internalisation, Vehicle / Internalisation, +GIP / Internalisation, GIP-only: % internalization: residual fluorescence after Mesna vs pre-Mesna; Surface expression: unit not given here; details: Mean
How it was run: (§3)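 Surface SNAP-GIPR signal removable by Mesna was tracked by imaging before and 10 min after treatment in pH 8.6 TNE buffer. Internalization is the Mesna-resistant share of specific fluorescence.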

[7] = tested on: wild-type and variant SNAP-GIPR; test: Constitutive and agonist-mediated internalization, reversible SNAP-tag labelling, INS-1 cells; set-up: key to Internalisation, GIP-only / Internalisation, Vehicle / Internalisation, +GIP: % internalization: residual fluorescence after Mesna vs pre-Mesna; details: Mean
How it was run: as §3

B1: L262H (protein, UniProt P48546 22-466, looked up, variant L262H)
Gastric inhibitory …: RAETGSKGQTAGELYQRWERYRRECQETLAAAEPPSGLACNGSFDMYVCWDYAAPNATARASCPWYLPWHHHVAAGFVLRQCGSDGQWGLWRDHTQCENPEKNEAFLDQRLILERLQVMYTVGYSLSLATLLLALLILSLFRRLHCTRNYIHINLFTSFMLRAAAILSRDRLLPRPGPYLGDQALALWNQALAACRTAQIVTQYCVGANYTWLLVEGVYLHSLLVLVGGSEEGHFRYYLLHGWGAPALFVIPWVIVRYLYENTQCWERNEVKAIWWIIRTPILMTILINFLIFIRILGILLSKLRTRQMRCRDYRLRLARSTLTLVPLLGVHEVVFAPVTEEQARGALRFAKLGFEIFLSSFQGFLVSVLYCFINKEVQSEIRRGWHHCRLRRSLGEEQRQLPERAFRALPSGSGPGEVPTSRGLSSGTLPGPGNEASRELESYC
- AD293 Surface ([1]; column repeated, paired with cAMP 100 nM): 0.4082
- AD293 Surface ([1]; paired with cAMP 100 pM): 0.4082
- Surface SNAP-GIPR expression ([1]; replicate 1): 0.05586
- Surface SNAP-GIPR expression ([1]; replicate 2): 0.3975
- Surface SNAP-GIPR expression ([1]; replicate 3): 0.3851
- Surface SNAP-GIPR expression ([1]; replicate 4): 0.346
- Surface SNAP-GIPR expression ([1]; replicate 5): 0.2997
- Surface SNAP-GIPR expression ([1]; replicate 6): 0.4709
- Surface SNAP-GIPR expression ([1]; replicate 7): 0.6801
- Surface SNAP-GIPR expression ([1]; replicate 8): 0.6962
- Surface SNAP-GIPR expression ([1]; replicate 9): 0.3552
- Surface SNAP-GIPR expression ([1]; replicate 10): 0.4769
- Surface SNAP-GIPR expression ([1]; replicate 11): 0.4805
- Surface SNAP-GIPR expression ([1]; replicate 12): 0.4059
- Surface SNAP-GIPR expression ([1]; replicate 13): 0.3345
- Surface SNAP-GIPR expression ([1]; replicate 14): 0.4406
- Surface SNAP-GIPR expression ([1]; replicate 15): 0.3425
- Surface SNAP-GIPR expression ([1]; replicate 16): 0.4438
- Surface SNAP-GIPR expression ([1]; replicate 17): 0.4347
- Surface SNAP-GIPR expression ([1]; replicate 18): 0.4011
- Surface SNAP-GIPR expression ([1]; replicate 19): 0.3575
- Surface SNAP-GIPR expression ([1]; replicate 20): 0.2679
- Surface SNAP-GIPR expression ([1]; replicate 21): 0.3532
- Surface SNAP-GIPR expression ([1]; replicate 22): 0.4093
- Surface SNAP-GIPR expression ([1]; replicate 23): 0.4836
- Surface SNAP-GIPR expression ([1]; replicate 24): 0.3698
- Surface SNAP-GIPR expression ([1]; replicate 25): 0.4044
- Surface SNAP-GIPR expression ([1]; replicate 26): 0.4747
- Surface SNAP-GIPR expression ([1]; replicate 27): 0.4781
- Surface SNAP-GIPR expression ([1]; replicate 28): 0.4405
- Surface SNAP-GIPR expression ([1]; replicate 29): 0.3368
- Surface SNAP-GIPR expression ([1]; replicate 30): 0.4516
- Surface SNAP-GIPR expression ([1]; replicate 31): 0.3843
- Surface SNAP-GIPR expression ([1]; replicate 32): 0.4196
- Surface SNAP-GIPR expression ([1]; replicate 33): 0.4081
- Surface SNAP-GIPR expression ([1]; replicate 34): 0.4658
- Surface SNAP-GIPR expression ([1]; replicate 35): 0.5726
- Surface SNAP-GIPR expression ([1]; replicate 36): 0.3172
- Surface SNAP-GIPR expression ([1]; replicate 37): 0.2985
- Surface SNAP-GIPR expression ([1]; replicate 38): 0.4456
- Surface SNAP-GIPR expression ([1]; replicate 39): 0.3825
- Surface SNAP-GIPR expression ([1]; replicate 40): 0.3992
- Surface SNAP-GIPR expression ([1]; replicate 41): 0.3665
- Surface expression [2]: 0.4629
- AD293 100 pM HTRF ([3]; AD293, 100 pM): 0.1729
- AD293 100 nM HTRF ([3]; AD293, 100 nM): 1.14
- INS-1 cAMP (100 nM) [4]: 0.9739
- AD293 100 pM cADDis ([5]; AD293, 100 pM): 18.6863
- AD293 100 nM cADDis ([5]; AD293, 100 nM): 34.26
- +GIP internalisation (100 nM) ([6]; Fig 4E, GIP 100 nM): 0.2171
- GIP-specific internalisation (100 nM) ([6]; Fig 4E, GIP 100 nM): 0.04083
- Constitutive internalisation (100 nM) ([6]; Fig 4E): 0.1763
- Surface expression ([6]; Fig 4E): 0.3728
- Internalisation, +GIP ([6]; Fig S4C, AD293): 58.197
- Internalisation, GIP-only ([6]; Fig S4C, AD293): 10.9885
- Internalisation, Vehicle ([6]; Fig S4C, AD293): 47.2085
- +GIP internalisation (100 nM) ([7]; Fig 4G, GIP 100 nM): 0.2099
- GIP-specific internalisation (100 nM) ([7]; Fig 4G, GIP 100 nM): 0.0574
- Constitutive internalisation (100 nM) ([7]; Fig 4G): 0.1525
- Internalisation, +GIP ([7]; Fig S4C, INS-1): 50.32
- Internalisation, GIP-only ([7]; Fig S4C, INS-1): 13.8767
- Internalisation, Vehicle ([7]; Fig S4C, INS-1): 36.4433
